Reference: US20230145060A1
Read-outs that look alike come from different tables or passages of the source.

Legend:
Test in all cases: cell-based or functional assay
[1] = target: HIV-1 Env of pseudovirus ZM197 (HIV-1)
[2] = target: HIV-1 Env of pseudovirus PV0 (HIV-1)
[3] = target: HIV-1 Env of pseudovirus SF162 (HIV-1) (UniProt P19550)
[4] = target: HIV-1 Env of pseudovirus X1632 (HIV-1)
[5] = target: HIV-1 Env of pseudovirus THRO (HIV-1)
[6] = target: HIV-1 Env of pseudovirus JRCSF (HIV-1) (UniProt P20871)
[7] = target: HIV-1 Env of pseudovirus T257 (HIV-1)
[8] = target: HIV-1 Env of pseudovirus 3817 (HIV-1)
[9] = target: HIV-1 Env of pseudovirus BG505 (HIV-1)
[10] = target: HIV-1 Env of pseudovirus pCNE8 (HIV-1)
[11] = target: HIV-1 Env of pseudovirus ZM106 (HIV-1)
[12] = target: HIV-1 Env of pseudovirus X2088 (HIV-1)
[13] = target: HIV-1 Env of pseudovirus Du422 (HIV-1)
[14] = target: HIV-1 Env of pseudovirus 278 (HIV-1)
[15] = target: HIV-1 Env of pseudovirus ZM197 (HIV-1); remark: listed apart in the source
[16] = target: HIV-1 Env of pseudovirus PV0 (HIV-1); remark: listed apart in the source
[17] = target: HIV-1 Env of pseudovirus SF162 (HIV-1) (UniProt P19550); remark: listed apart in the source
[18] = target: HIV-1 Env of pseudovirus X1632 (HIV-1); remark: listed apart in the source
[19] = target: HIV-1 Env of pseudovirus THRO (HIV-1); remark: listed apart in the source
[20] = target: HIV-1 Env of pseudovirus JRCSF (HIV-1) (UniProt P20871); remark: listed apart in the source
[21] = target: HIV-1 Env of pseudovirus T257 (HIV-1); remark: listed apart in the source
[22] = target: HIV-1 Env of pseudovirus 3817 (HIV-1); remark: listed apart in the source
[23] = target: HIV-1 Env of pseudovirus BG505 (HIV-1); remark: listed apart in the source
[24] = target: HIV-1 Env of pseudovirus pCNE8 (HIV-1); remark: listed apart in the source
[25] = target: HIV-1 Env of pseudovirus ZM106 (HIV-1); remark: listed apart in the source
[26] = target: HIV-1 Env of pseudovirus X2088 (HIV-1); remark: listed apart in the source
[27] = target: HIV-1 Env of pseudovirus Du422 (HIV-1); remark: listed apart in the source
[28] = target: HIV-1 Env of pseudovirus 278 (HIV-1); remark: listed apart in the source

Substance | IC50, neutralization of ZM197 PsV [1] [µg/mL] | IC50, neutralization of PV0 PsV [2] [µg/mL] | IC50, neutralization of X1632 PsV [4] [µg/mL] | IC50, neutralization of THRO PsV [5] [µg/mL] | IC50, neutralization of JRCSF PsV [6] [µg/mL] | IC50, neutralization of T257 PsV [7] [µg/mL] | IC50, neutralization of 3817 PsV [8] [µg/mL] | IC50, neutralization of BG505 PsV [9] [µg/mL] | IC50, neutralization of pCNE8 PsV [10] [µg/mL] | IC50, neutralization of ZM106 PsV [11] [µg/mL] | IC50, neutralization of X2088 PsV [12] [µg/mL] | IC50, neutralization of Du422 PsV [13] [µg/mL] | IC50, neutralization of 278 PsV [14] [µg/mL] | IC50, neutralization of ZM197 PsV [15] [nM] | IC50, neutralization of PV0 PsV [16] [nM] | IC50, neutralization of SF162 PsV [17] [nM] | IC50, neutralization of X1632 PsV [18] [nM] | IC50, neutralization of THRO PsV [19] [nM] | IC50, neutralization of JRCSF PsV [20] [nM] | IC50, neutralization of T257 PsV [21] [nM] | further results
32-I multabody (PGDM1400 scFab-human apoferritin : scFc-N-Ferritin : iMab A12P scFab-C-Ferritin : 10E8v4 scFab-C-Ferritin, 4:2:1:1) | 0.0044 | 0.12 | 0.008 | 0.033 | 0.004 | 0.0015 | 1.8 | 0.0026 | 0.0013 | 0.0031 | 3.1 | 0.7 | 0.008 | 0.0019 | 0.052 | 1.1 | 0.0034 | 0.014 | 0.0017 | 0.00068 | IC50, neutralization of SF162 PsV [3]: 2.5 µg/mL; IC50, neutralization of 3817 PsV [22]: 0.79 nM; IC50, neutralization of BG505 PsV [23]: 0.0011 nM; IC50, neutralization of pCNE8 PsV [24]: 0.57 pM; IC50, neutralization of ZM106 PsV [25]: 0.0014 nM; IC50, neutralization of X2088 PsV [26]: 1.3 nM; IC50, neutralization of Du422 PsV [27]: 0.31 nM; IC50, neutralization of 278 PsV [28]: 0.0035 nM
N6/PGDM1400x10E8v4 trispecific antibody | 0.073 | 1.3 | 0.03 | 0.31 | 0.026 | 0.028 | 1.2 | 0.059 | 0.024 | 0.017 | 0.56 | 0.19 | 1.2 | 0.42 | 7.2 | 1.9 | 0.17 | 1.7 | 0.15 | 0.16 | IC50, neutralization of SF162 PsV [3]: 0.33 µg/mL; IC50, neutralization of 3817 PsV [22]: 6.7 nM; IC50, neutralization of BG505 PsV [23]: 0.34 nM; IC50, neutralization of pCNE8 PsV [24]: 0.14 nM; IC50, neutralization of ZM106 PsV [25]: 0.1 nM; IC50, neutralization of X2088 PsV [26]: 3.2 nM; IC50, neutralization of Du422 PsV [27]: 1.1 nM; IC50, neutralization of 278 PsV [28]: 7.1 nM
PGDM1400 IgG (antibody) | 0.11 | 1.3 | 0.018 | 0.09 | 0.0074 | 0.012 | > 50 | 0.0032 | 0.0027 | 0.013 | > 50 | 6 | 0.16 | 0.68 | 8.4 | > 100 | 0.12 | 0.61 | 0.049 | 0.08 | IC50, neutralization of SF162 PsV [3]: > 50 µg/mL; IC50, neutralization of 3817 PsV [22]: > 100 nM; IC50, neutralization of BG505 PsV [23]: 0.02 nM; IC50, neutralization of pCNE8 PsV [24]: 18 pM; IC50, neutralization of ZM106 PsV [25]: 0.084 nM; IC50, neutralization of X2088 PsV [26]: > 100 nM; IC50, neutralization of Du422 PsV [27]: 40 nM; IC50, neutralization of 278 PsV [28]: 1.1 nM
32-N multabody (PGDM1400 scFab-human apoferritin : scFc-N-Ferritin : N49P7 scFab-C-Ferritin : 10E8v4 scFab-C-Ferritin, 4:2:1:1) | 0.0096 | 0.33 | 0.0045 | 0.058 | 0.0054 | 0.0037 | 9.1 | 0.0045 | 0.0032 | 0.0089 | 5.2 | 2.5 | 0.009 | 0.0042 | 0.15 | 0.58 | 0.002 | 0.025 | 0.0023 | 0.0016 | IC50, neutralization of SF162 PsV [3]: 1.3 µg/mL; IC50, neutralization of 3817 PsV [22]: 3.9 nM; IC50, neutralization of BG505 PsV [23]: 0.0019 nM; IC50, neutralization of pCNE8 PsV [24]: 1.4 pM; IC50, neutralization of ZM106 PsV [25]: 0.0039 nM; IC50, neutralization of X2088 PsV [26]: 2.3 nM; IC50, neutralization of Du422 PsV [27]: 1.08 nM; IC50, neutralization of 278 PsV [28]: 0.0039 nM
10E8v4 IgG (antibody) | 0.19 | 6.3 | 2.02 | 0.37 | 1.8 | 1.5 | 3.1 | 1.4 | 0.96 | > 50 | > 50 | 0.55 | 1.8 | 1.3 | 42 | 20 | 13 | 2.5 | 12 | 9.8 | IC50, neutralization of 3817 PsV [22]: 21 nM; IC50, neutralization of BG505 PsV [23]: 9 nM; IC50, neutralization of pCNE8 PsV [24]: 6.4 nM; IC50, neutralization of ZM106 PsV [25]: > 100 nM; IC50, neutralization of X2088 PsV [26]: > 100 nM; IC50, neutralization of Du422 PsV [27]: 3.7 nM; IC50, neutralization of 278 PsV [28]: 12 nM
